B1: SEC22B (parent)
chain: AKQLFRKLNEQSPTRCTLEAGAMT
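Further: lentivirally expressed fusions sorted by FACS into six bins by GFP to DsRed ratio, PSI derived from sequencing read proportions per bin multiplied by bin number.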

In this series the parent is B1. Description: protein stability index of a GFP-peptide fusion (GPS, HEK-293T) (PSI 1-6); higher = more stable. To be noted: c terminus: a fixed tail appended.
With AKQLFRKLNEQSPTRCTLEAGAMN, the protein stability index was 1.98. The result for AKQLFRKLNEQSPTRCTLEAGAMW reads 2.19.

In the case of AKQLFRKLNEQSPTRCTLEAGAMY, the protein stability index came to 2.36. Under AKQLFRKLNEQSPTRCTLEAGAMP stands 1.72; under AKQLFRKLNEQSPTRCTLEAGAMD, 2.39; under AKQLFRKLNEQSPTRCTLEAGAME, 2.09. Under AKQLFRKLNEQSPTRCTLEAGAMV stands 1.99. For AKQLFRKLNEQSPTRCTLEAWAMT, the protein stability index was 1.61. The result for AKQLFRKLNEQSPTRCTLEAFAMT reads 2.42. The result for AKQLFRKLNEQSPTRCTLEAKAMT reads 2.11. Take AKQLFRKLNEQSPTRCTLEASAMT: the protein stability index was 2.51.

Turning to AKQLFRKLNEQSPTRCTLEACAMT, the protein stability index is 2.58. As to AKQLFRKLNEQSPTRCTLEAHAMT, the protein stability index came out at 1.94. AKQLFRKLNEQSPTRCTLEAMAMT: the protein stability index turned out to be 1.34. As to AKQLFRKLNEQSPTRCTLEARAMT, the protein stability index was determined as 2.4. Under AKQLFRKLNEQSPTRCTLEAPAMT stands 2.38; under AKQLFRKLNEQSPTRCTLEAYAMT, 1.95. As for AKQLFRKLNEQSPTRCTLEAIAMT, the protein stability index worked out at 1.88. Regarding AKQLFRKLNEQSPTRCTLEADAMT, the protein stability index worked out at 2.99.

For the variant AKQLFRKLNEQSPTRCTLEALAMT, the protein stability index came to 2.12. Under AKQLFRKLNEQSPTRCTLEAAAMT stands 1.96; under AKQLFRKLNEQSPTRCTLEATAMT, 1.86; under AKQLFRKLNEQSPTRCTLEAQAMT, 1.68. On to AKQLFRKLNEQSPTRCTLEANAMT, for which the protein stability index was 2.18. On to AKQLFRKLNEQSPTRCTLEAVAMT, for which the protein stability index turned out to be 4.07. The result for AKQLFRKLNEQSPTRCTLEAEAMT reads 2.56. The result for AKQLFRKLNEQSPTRCHLEAGAMT reads 2. AKQLFRKLNEQSPTRCMLEAGAMT: the protein stability index came to 2.46. Turning to AKQLFRKLNEQSPTRCCLEAGAMT, the protein stability index was determined as 2.4. With AKQLFRKLNEQSPTRCLLEAGAMT, the protein stability index is 2.13. Under AKQLFRKLNEQSPTRCYLEAGAMT stands 1.61; under AKQLFRKLNEQSPTRCQLEAGAMT, 2.4; under AKQLFRKLNEQSPTRCVLEAGAMT, 2.18. In the case of AKQLFRKLNEQSPTRCPLEAGAMT, the protein stability index came out at 2.77. The result for AKQLFRKLNEQSPTRCNLEAGAMT reads 2.22. Under AKQLFRKLNEQSPTRCSLEAGAMT stands 1.81.

For AKQLFRKLNEQSPTRCKLEAGAMT, the protein stability index turned out to be 1.94. Under AKQLFRKLNEQSPTRCDLEAGAMT stands 3.48. The result for AKQLFRKLNEQSPTRCALEAGAMT reads 1.81. Under AKQLFRKLNEQSPTRCRLEAGAMT stands 2.69; under AKQLFRKLNEQSPTRCGLEAGAMT, 1.69; under AKQLFRKLNEQSPTRCELEAGAMT, 3.23. In the case of AKQLFRKLNEQSPTRCFLEAGAMT, the protein stability index is 1.6.

For the variant AKQLFRKLNEQSPTRCWLEAGAMT, the protein stability index turned out to be 2.28. In the case of AKQLFRKLNEQSPTRCILEAGAMT, the protein stability index was determined as 1.86.

For the variant AKQLFRKLNEQSPTRTTLEAGAMT, the protein stability index came out at 3.64. Under AKQLFRKLNEQSPTRVTLEAGAMT stands 2.53; under AKQLFRKLNEQSPTRQTLEAGAMT, 3.47; under AKQLFRKLNEQSPTRNTLEAGAMT, 3.74. Take AKQLFRKLNEQSPTRPTLEAGAMT: the protein stability index stood at 3.96.

Turning to AKQLFRKLNEQSPTRLTLEAGAMT, the protein stability index was 3.19. Under AKQLFRKLNEQSPTRSTLEAGAMT stands 3.66; under AKQLFRKLNEQSPTRMTLEAGAMT, 3.08. AKQLFRKLNEQSPTRYTLEAGAMT: the protein stability index was determined as 2.79.

Consider AKQLFRKLNEQSPTRWTLEAGAMT, for which the protein stability index was 2.52. On to AKQLFRKLNEQSPTRRTLEAGAMT, for which the protein stability index turned out to be 3.27. As for AKQLFRKLNEQSPTRCTLMAGAMT, the protein stability index came to 2.15.

Consider AKQLFRKLNEQSPTRCTLAAGAMT, for which the protein stability index stood at 2.28. The result for AKQLFRKLNEQSPTRCTLTAGAMT reads 2.56; that for AKQLFRKLNEQSPTRCTLLAGAMT, 2.35. Under AKQLFRKLNEQSPTRCTLWAGAMT stands 2.22; under AKQLFRKLNEQSPTRCTLPAGAMT, 2.99; under AKQLFRKLNEQSPTRCTLKAGAMT, 2.47. The result for AKQLFRKLNEQSPTRCTLFAGAMT reads 1.41; that for AKQLFRKLNEQSPTRCTLDAGAMT, 3.05; that for AKQLFRKLNEQSPTRCTLYAGAMT, 2.18. With AKQLFRKLNEQSPTRCTLGAGAMT, the protein stability index stood at 2.12. Under AKQLFRKLNEQSPTRCTLVAGAMT stands 1.75; under AKQLFRKLNEQSPTRCTLHAGAMT, 2.46; under AKQLFRKLNEQSPTRCTLNAGAMT, 2.95.

On to AKQLFRKLNEQSPTRCTLQAGAMT, for which the protein stability index stood at 2.87. The result for AKQLFRKLNEQSPTRCTLCAGAMT reads 2.52; that for AKQLFRKLNEQSPTRCTLSAGAMT, 2.94; that for AKQLFRKLNEQSPTRCTLIAGAMT, 1.64.

Take AKQLFRKLNEQSPTRCTLRAGAMT: the protein stability index is 2.49. In the case of AKQLFRKLNEQSPTRCTLEFGAMT, the protein stability index turned out to be 1.34.

On to AKQLFRKLNEQSPTRCTLEDGAMT, for which the protein stability index was 3.07.

On to AKQLFRKLNEQSPTRCTLEIGAMT, for which the protein stability index came to 2.27. The result for AKQLFRKLNEQSPTRCTLERGAMT reads 2.77; that for AKQLFRKLNEQSPTRCTLEGGAMT, 3.5; that for AKQLFRKLNEQSPTRCTLEHGAMT, 2.47.

As for AKQLFRKLNEQSPTRCTLEPGAMT, the protein stability index is 2.65. Take AKQLFRKLNEQSPTRCTLEKGAMT: the protein stability index came to 3.02. The result for AKQLFRKLNEQSPTRCTLEWGAMT reads 1.59; that for AKQLFRKLNEQSPTRCTLEQGAMT, 2.87; that for AKQLFRKLNEQSPTRCTLEEGAMT, 3.22.

As for AKQLFRKLNEQSPTRCTLEVGAMT, the protein stability index was determined as 2.49. With AKQLFRKLNEQSPTRCTLELGAMT, the protein stability index was determined as 2.27. Consider AKQLFRKLNEQSPTRCTLESGAMT, for which the protein stability index came out at 2.99. The result for AKQLFRKLNEQSPTRCTLENGAMT reads 3.08; that for AKQLFRKLNEQSPTRCTLEMGAMT, 3.4. Under AKQLFRKLNEQSPTRCTLETGAMT stands 2.96; under AKQLFRKLNEQSPTRCTLECGAMT, 1.64; under AKQLFRKLNEQSPTRCTLEYGAMT, 2.01.

The values are drawn from the supplement of paper PMC10567573.
